Experimental data reported in the supplement of paper PMC7877785.
± gives the uncertainty stated by the source.

Assay: self-splicing fitness, log relative to wild type (ln ratio); higher = more splicing; Tetrahymena group I intron in knt gene, E. coli kanamycin selection, DiMSum; sequences stand for … in CUCUCU…GGAGGGAAAAGUUAUCAGGCAUGCACCUGGUAGCUAGUCUUUAAACCAAUAGAUUGCAUCGGUUUAAAAGGCAAGACCGUCAAAUUGCGGGAAAGGGGUCAACAGCCGUUCAGUACCAAGUCUCAGGGGAAACUUUGAGAUGGCCUUGCAAAGGGUAUGGUAAUAAGCUGACGGACAUGGUCCUAACCACGCAGCCAAGUCCUAAGUCAACAGAUCUUCUGUUGAUAUGGAUGCAGUUCACAGACUAAAUGUCGGUCGGGGAAGAUGUAUUCUUCUCAUAAGAUAUAGUCGGACCUCUCCUUAAUGGGAGCUAGCGGAUGAAGUGAUGCAACACUGGAGCCGCUGGGAACUAAUUUGUAUGCGAAAGUAUAUUGAUUAGUUUUGGAGUACUCGUGGUCG
Procedure, shortened: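 DiMSum derived fitness as the error-weighted combination of fold changes across replicates, kanamycin versus no kanamycin, normalised to wild type. E. coli BL21(DE3) held the library, which randomised all eight P1ex-region intron nucleotides within the knt kanamycin-resistance gene on pET-22b(+). Six replicate transformations grew overnight at 37°C or 30°C on LB agar with or without 25 μg/mL kanamycin, also containing 100 μg/mL carbenicillin, 50 μM IPTG and 0.2% rhamnose, and pooled colonies were amplicon-sequenced on an Illumina HiSeq 2500.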

| Sequence | self-splicing fitness (ln) (30 °C) | self-splicing fitness (ln) (37 °C) |
| --- | --- | --- |
| UCCUAGCAAUAUUACGCGAU | -3.18 ± 0.28 | -2.65 ± 0.5 |
| CUGAAGCAAUAUUACGUCAU | -1.03 ± 0.093 | -0.736 ± 0.12 |
| AACUAGCAAUAUUACGAUCG | -0.822 ± 0.074 | 0.0491 ± 0.1 |
| UCUAAGCAAUAUUACGGAAU | -4.16 ± 0.46 | -1.64 ± 0.33 |
| UAAAAGCAAUAUUACGCAUC | -2.95 ± 0.15 | -2.36 ± 0.21 |
| GUAAAGCAAUAUUACGUGCU | -2.34 ± 0.11 | -0.431 ± 0.12 |
| CAGCAGCAAUAUUACGCUGU | -2.84 ± 0.22 | -2.36 ± 0.24 |
| ACACAGCAAUAUUACGGAAC | -4.07 ± 0.17 | -2.49 ± 0.14 |
| CCCCAGCAAUAUUACGUCUA | -3.09 ± 0.14 | -2.84 ± 0.2 |
| CCAUAGCAAUAUUACGUGAA | -3.25 ± 0.21 | -2.07 ± 0.26 |
| UCAAAGCAAUAUUACGGCCA | -0.546 ± 0.13 | -0.278 ± 0.11 |
| UGUGAGCAAUAUUACGGUCU | -3.01 ± 0.17 | -2.19 ± 0.2 |
| CGUAAGCAAUAUUACGGUUA | -2.29 ± 0.12 | -1.72 ± 0.14 |
| AGUCAGCAAUAUUACGGCUA | -0.605 ± 0.14 | -0.512 ± 0.13 |
| GGGCAGCAAUAUUACGACGG | -3.78 ± 0.35 | -1.4 ± 0.27 |
| GAUAAGCAAUAUUACGUGUC | -2.29 ± 0.21 | -2.5 ± 0.31 |
| CGUCAGCAAUAUUACGUACG | -3.6 ± 0.43 | -2.97 ± 0.37 |
| CGCAAGCAAUAUUACGGGUC | -3.87 ± 0.23 | -3.77 ± 0.28 |
| CCCAAGCAAUAUUACGAUCC | – | -2.85 ± 0.35 |
| GUUUAGCAAUAUUACGUAAG | -0.762 ± 0.085 | 0.076 ± 0.15 |
| AUAAAGCAAUAUUACGGACU | -0.0332 ± 0.073 | 0.654 ± 0.092 |
| UGCUAGCAAUAUUACGGUCU | -0.539 ± 0.084 | -0.14 ± 0.08 |
| GCUAAGCAAUAUUACGUUUC | -3 ± 0.16 | -0.945 ± 0.12 |
| GGCUAGCAAUAUUACGGUCG | 0.0358 ± 0.11 | -0.669 ± 0.12 |
| CAUUAGCAAUAUUACGUGUG | -2.91 ± 0.19 | -3.15 ± 0.19 |
| UGCUAGCAAUAUUACGAUAC | -2.57 ± 0.28 | -1.93 ± 0.28 |

| Sequence | self-splicing fitness (ln) (30 °C) | self-splicing fitness (ln) (37 °C) |
| --- | --- | --- |
| AUUUAGCAAUAUUACGCGAG | -2.19 ± 0.22 | -0.658 ± 0.2 |
| ACGGAGCAAUAUUACGGUUA | -2.6 ± 0.23 | -2.2 ± 0.15 |
| GCCAAGCAAUAUUACGCCGG | -2.18 ± 0.26 | -2.13 ± 0.4 |
| UAUCAGCAAUAUUACGUUCU | -2.22 ± 0.11 | -1.03 ± 0.13 |
| ACUUAGCAAUAUUACGGUGA | -1.76 ± 0.15 | -1.56 ± 0.15 |
| GUCGAGCAAUAUUACGAGUG | -1.62 ± 0.088 | -1.85 ± 0.11 |
| AGCGAGCAAUAUUACGUCAG | -4.3 ± 0.36 | -2.58 ± 0.29 |
| UGCAAGCAAUAUUACGUGAG | -3.87 ± 0.21 | -2.72 ± 0.18 |
| CUAGAGCAAUAUUACGGGCC | -2.86 ± 0.34 | -1.76 ± 0.34 |
| ACCCAGCAAUAUUACGGUGA | -0.516 ± 0.043 | 0.305 ± 0.059 |
| UUGGAGCAAUAUUACGUACA | – | 0.204 ± 0.28 |
| CAUCAGCAAUAUUACGGAAA | -2.66 ± 0.23 | -0.167 ± 0.14 |
| AGAGAGCAAUAUUACGUUUU | -3.68 ± 0.35 | – |
| UGAUAGCAAUAUUACGUUGG | -2.45 ± 0.12 | -1.63 ± 0.16 |
| AGUCAGCAAUAUUACGGUUG | -2.76 ± 0.12 | -2.8 ± 0.17 |
| GCCAAGCAAUAUUACGUGGG | -2.97 ± 0.1 | -3.25 ± 0.13 |
| AGGAAGCAAUAUUACGCCUC | -2.44 ± 0.44 | -0.418 ± 0.46 |
| UUUGAGCAAUAUUACGUGCU | -3.64 ± 0.16 | -2.84 ± 0.2 |
| AGGCAGCAAUAUUACGAAUA | -2.67 ± 0.25 | -2.08 ± 0.22 |
| GAUAAGCAAUAUUACGCGAC | -1.41 ± 0.14 | -1.54 ± 0.23 |
| GUCGAGCAAUAUUACGUUCA | -0.837 ± 0.084 | -0.462 ± 0.086 |
| ACGCAGCAAUAUUACGCUUC | -2.75 ± 0.26 | -2.48 ± 0.22 |
| ACGGAGCAAUAUUACGAUAG | -3.57 ± 0.29 | -3.09 ± 0.34 |
| AAUCAGCAAUAUUACGCUUC | -1.77 ± 0.069 | -0.398 ± 0.088 |
| AUAGAGCAAUAUUACGGUGA | -1.49 ± 0.15 | -1.41 ± 0.19 |
| AACAAGCAAUAUUACGGGGG | -2.94 ± 0.17 | -1.86 ± 0.17 |

| Sequence | self-splicing fitness (ln) (30 °C) | self-splicing fitness (ln) (37 °C) |
| --- | --- | --- |
| CCGCAGCAAUAUUACGCUAA | -3.22 ± 0.22 | -2.55 ± 0.23 |
| AUUAAGCAAUAUUACGGGAU | -2.07 ± 0.15 | -0.652 ± 0.12 |
| AGUAAGCAAUAUUACGAGAU | -3.09 ± 0.15 | -0.575 ± 0.16 |
| GACGAGCAAUAUUACGAUAG | – | -3.92 ± 0.46 |
| GCCAAGCAAUAUUACGCAUU | -1.35 ± 0.072 | -0.715 ± 0.081 |
| CGGUAGCAAUAUUACGUGUC | -2.99 ± 0.34 | -2.5 ± 0.21 |
| UAAAAGCAAUAUUACGUCUC | -3.48 ± 0.17 | -3 ± 0.17 |
| CGAUAGCAAUAUUACGUUCG | -3.06 ± 0.24 | -1.9 ± 0.33 |
| GCCCAGCAAUAUUACGUACU | -0.0223 ± 0.1 | -0.765 ± 0.15 |
| GUGUAGCAAUAUUACGUCAA | -1.16 ± 0.15 | -1.14 ± 0.15 |
| UUAUAGCAAUAUUACGUGCU | -2.75 ± 0.16 | -1.91 ± 0.14 |
| GCUGAGCAAUAUUACGUCAC | -2.4 ± 0.37 | -1.66 ± 0.36 |
| GAUAAGCAAUAUUACGGUUA | -0.72 ± 0.12 | 0.108 ± 0.11 |
| GAUCAGCAAUAUUACGAAUC | -3.46 ± 0.41 | -2.61 ± 0.39 |
| UAAAAGCAAUAUUACGCCCG | -0.0582 ± 0.21 | 0.323 ± 0.23 |
| GCCAAGCAAUAUUACGCACU | -0.915 ± 0.077 | -0.196 ± 0.097 |
| GGAAAGCAAUAUUACGGGUA | -1.86 ± 0.17 | -1.32 ± 0.15 |
| UCUGAGCAAUAUUACGUAAG | -0.697 ± 0.11 | -0.863 ± 0.19 |
| UAUAAGCAAUAUUACGGGCA | -0.658 ± 0.11 | 0.213 ± 0.12 |
| AGGAAGCAAUAUUACGUGUA | -2.06 ± 0.1 | -0.914 ± 0.085 |
| CACGAGCAAUAUUACGGGUG | -3.79 ± 0.21 | -2.25 ± 0.18 |
| UCAUAGCAAUAUUACGAGCG | -1.95 ± 0.12 | -0.509 ± 0.13 |
| UUUGAGCAAUAUUACGGGGC | – | -2.07 ± 0.45 |
| GUUCAGCAAUAUUACGGUCC | -0.652 ± 0.19 | 0.182 ± 0.23 |
